Target: the molecule itself
Assay: dynamic light scattering; TRAF2-C ≈ 4 µM (in monomers), 20 °C, filtered 0.22 µm; bimodal Gaussian fit of the size distribution (monomers, trimers)

B1: C-terminal domain of human TRAF2 (TRAF2-C, residues 310-501) (domain or fragment, UniProt Q12933 310-501, looked up)
chain: DQDKIEALSSKVQQLERSIGLKDLAMADLEQKVLEMEASTYDGVFIWKISDFARKRQEAVAGRIPAIFSPAFYTSRYGYKMCLRIYLNGDGTGRGTHLSLFFVVMKGPNDALLRWPFNQKVTLMLLDQNNREHVIDAFRPDVTSSSFQRPVNDMNIASGCPLFCPVSKMEAKNSYVRDDAIFIKAIVDLTGL
notes: TNF receptor-associated factor 2 (TRAF2), human, C-terminal domain, residues 310-501; Unlabelled protein used for DLS, CD and SANS; Only a pET-based vector is named; the tag is inferred from the Ni-NTA step; also called TRAF2 C-terminal domain; source: E. coli BL21 (DE3), purified (Ni-NTA, Superdex 75 SEC)
- stoichiometry N: 3

From publication PMC12650658, “Evaluating the Topological Features of Monomeric and Trimeric TRAF2-C: A Multi-Disciplinary Approach” (Biomolecules, 2025)
